Data: the Human Domainome abundance scans (Beltran et al. 2025)
± gives the uncertainty stated by the source.

B1: DnaJ homolog subfamily C member 5, residues 16 to 77; numbered along this chain, Q9H3Z4 (parent)
chain: LYHVLGLDKNATSDDIKKSYRKLALKYHPDKNPDNPEAADKFKEINNAHAILTDATKRNIYD

Variants of: B1
Experiment: abundance fitness (aPCA) (normalised: wild type 0, dead -1); higher = more abundant; growth selection in yeast, the domain comes from the species named
Settings: Homo sapiens

Abundance fitness: each site, then its substitutions
D15: P -0.643 ± 0.12, R -0.693 ± 0.084, F -0.689 ± 0.23, C -0.24 ± 0.2, I -0.328 ± 0.14, T -0.367 ± 0.11, G -0.433 ± 0.098, H -0.679 ± 0.25, K -0.17 ± 0.099, E -0.067 ± 0.12, S -0.382 ± 0.092, W -0.271 ± 0.069, M -0.359 ± 0.14, L -0.412 ± 0.07, A -0.042 ± 0.069, Y -0.888 ± 0.2
Y27: P -0.61 ± 0.16, T -0.157 ± 0.16, A -0.344 ± 0.1, L -0.326 ± 0.062, W 0.231 ± 0.099, H 0.185 ± 0.24, E -0.07 ± 0.091, G -0.27 ± 0.077, M -0.196 ± 0.12, D -0.316 ± 0.12, R -0.543 ± 0.079, N -0.83 ± 0.36, K -0.379 ± 0.12, S -0.21 ± 0.083, I -0.715 ± 0.22, F 0.185 ± 0.14, C -0.239 ± 0.19, V -0.571 ± 0.095
T12: E -0.573 ± 0.12, W -1.31 ± 0.12, Y -1.07 ± 0.2, H -0.349 ± 0.13, F -0.857 ± 0.13, S -0.232 ± 0.11, K -0.437 ± 0.14, A -0.878 ± 0.12, P -1.01 ± 0.1, I -0.412 ± 0.11, N -0.426 ± 0.17, C -0.235 ± 0.12, G -0.472 ± 0.072, M -0.678 ± 0.12, L -0.813 ± 0.084, D -0.467 ± 0.21
K31: M -0.521 ± 0.17, A -0.065 ± 0.085, S -0.51 ± 0.089, E -0.116 ± 0.11, Q -0.06 ± 0.12, P -0.379 ± 0.16, N -0.452 ± 0.18, L -0.433 ± 0.083, Y -0.207 ± 0.15, H -0.195 ± 0.17, I -0.06 ± 0.16, T -0.139 ± 0.11, F -0.371 ± 0.092, C -0.64 ± 0.13, D -0.118 ± 0.14, W -0.626 ± 0.11
I16: A -0.32 ± 0.089, E -0.305 ± 0.11, Q -0.437 ± 0.1, C -0.44 ± 0.12, S -0.435 ± 0.08, M -0.65 ± 0.091, L -0.285 ± 0.065, P -0.587 ± 0.095, Y -0.649 ± 0.14, N -0.615 ± 0.18, K -0.45 ± 0.098, H -0.723 ± 0.13, V -0.238 ± 0.072, R -0.586 ± 0.058, F -0.064 ± 0.18, D -0.567 ± 0.13, W -0.998 ± 0.094, G -0.442 ± 0.073
A11: W -1.24 ± 0.21, T -0.553 ± 0.16, V -0.661 ± 0.11, S -0.578 ± 0.14
P29: W -0.66 ± 0.077, T -0.292 ± 0.069, N -0.278 ± 0.067, S -0.159 ± 0.065, Q -0.377 ± 0.072, L -0.472 ± 0.066, V -0.414 ± 0.062, C -0.42 ± 0.11, M -0.386 ± 0.084, A -0.053 ± 0.071, G -0.381 ± 0.064, Y -0.413 ± 0.097, H -0.539 ± 0.11, I -0.57 ± 0.095, R -0.422 ± 0.055, F -0.542 ± 0.11, D -0.111 ± 0.092
D14: H -0.394 ± 0.26, F -0.848 ± 0.3, S -0.242 ± 0.07, Y -0.431 ± 0.16, T -0.346 ± 0.099, G -0.401 ± 0.065, E -0.048 ± 0.099, P -0.348 ± 0.11, I -0.105 ± 0.14, C -0.549 ± 0.11, W -0.357 ± 0.075, V -0.341 ± 0.074, N -0.151 ± 0.15, R -0.359 ± 0.056, L -0.238 ± 0.073, K -0.209 ± 0.12, Q -0.394 ± 0.1, A -0.166 ± 0.094
A24: C 0.159 ± 0.074, M -0.028 ± 0.12, T 0.002 ± 0.064, V 0.126 ± 0.068, K -0.034 ± 0.057, I 0.086 ± 0.096, L -0.095 ± 0.058, W 0.245 ± 0.084, E 0.028 ± 0.099, P -0.449 ± 0.1, F 0.213 ± 0.1, Q -0.093 ± 0.076, Y 0.208 ± 0.091, S 0.044 ± 0.058, R -0.041 ± 0.059, G -0.377 ± 0.075, D -0.552 ± 0.15
K18: L -0.157 ± 0.067, D -0.062 ± 0.19, V -0.098 ± 0.069, Q -0.104 ± 0.11, C -0.101 ± 0.1, F 0.117 ± 0.21, P -0.623 ± 0.086, R -0.13 ± 0.062, A 0.079 ± 0.1, T -0.025 ± 0.1, I -0.005 ± 0.13, E 0.11 ± 0.086, N -0.34 ± 0.18, S 0.04 ± 0.07, W -0.226 ± 0.091, Y -0.333 ± 0.19, M 0.06 ± 0.09
H28: F -0.541 ± 0.28, V -0.459 ± 0.17, S 0.219 ± 0.15, W -0.474 ± 0.35, E 0.179 ± 0.29, D 0.062 ± 0.16, Y -0.409 ± 0.13, G -0.037 ± 0.12, L -0.536 ± 0.16, A -0.06 ± 0.26, K 0.134 ± 0.2, Q 0.34 ± 0.34, R -0.194 ± 0.17, C -0.29 ± 0.29
L25: M -0.101 ± 0.078, C -0.102 ± 0.11, Y -0.299 ± 0.12, P -0.21 ± 0.095, G -0.293 ± 0.064, F -0.068 ± 0.085, K -0.159 ± 0.22, W -0.346 ± 0.088, E 0.321 ± 0.11, Q 0.024 ± 0.11, A 0.039 ± 0.066, T -0.025 ± 0.096, H -0.442 ± 0.23, D 0.17 ± 0.089, S -0.377 ± 0.08, N -0.073 ± 0.11, R -0.069 ± 0.067, V -0.007 ± 0.065
S19: P -0.516 ± 0.052, I -0.762 ± 0.4, A 0.02 ± 0.078, H -0.333 ± 0.27, E -0.091 ± 0.088, Y -0.299 ± 0.2, W -0.813 ± 0.075, G -0.3 ± 0.065, Q 0.042 ± 0.12, K -0.391 ± 0.11, T -0.106 ± 0.12, D -0.485 ± 0.19, F -0.88 ± 0.16, R -0.317 ± 0.051, V -0.187 ± 0.067, C -0.088 ± 0.12
K17: H 0.057 ± 0.13, V 0.039 ± 0.079, W -0.204 ± 0.069, I -0.107 ± 0.17, E 0.084 ± 0.088, N -0.248 ± 0.34, G -0.251 ± 0.066, Q -0.063 ± 0.09, L -0.18 ± 0.07, M -0.09 ± 0.09, F -0.52 ± 0.19, P -1.31 ± 0.13, D -0.477 ± 0.47, C -0.361 ± 0.1, R -0.032 ± 0.061, A 0.048 ± 0.068, S -0.153 ± 0.075, T -0.07 ± 0.096
R21: A 0.379 ± 0.48
Y20: S -0.086 ± 0.068, E 0.2 ± 0.071, F 0.191 ± 0.12, Q 0.015 ± 0.13, H 0.109 ± 0.25, L -0.505 ± 0.065, K -0.27 ± 0.14, G -0.189 ± 0.071, T -0.236 ± 0.072, I -0.603 ± 0.29, P -0.093 ± 0.075, V -0.28 ± 0.055, R -0.148 ± 0.055, W 0.329 ± 0.075, C -0.182 ± 0.091, D -0.053 ± 0.12, M -0.414 ± 0.089
L23: H -1.2 ± 0.41, I -0.736 ± 0.47, K -0.247 ± 0.11, Y -0.403 ± 0.17, M -0.209 ± 0.12, N -0.052 ± 0.21, V -0.525 ± 0.076, A -0.454 ± 0.11, G -0.308 ± 0.075, D -0.129 ± 0.15, W -0.423 ± 0.084, F -0.536 ± 0.17, Q -0.334 ± 0.1, E -0.067 ± 0.12, S -0.423 ± 0.11, P -0.438 ± 0.14
D30: T 0.067 ± 0.14, S 0.099 ± 0.069, G -0.171 ± 0.062, C -0.221 ± 0.13, K 0.084 ± 0.099, R -0.207 ± 0.06, F -0.828 ± 0.28, W -0.749 ± 0.087, E 0.01 ± 0.084, N -0.018 ± 0.098, A 0.14 ± 0.09, P -0.384 ± 0.1, V -0.207 ± 0.075, Y -0.288 ± 0.15, M -0.089 ± 0.17
S13: I 0.046 ± 0.18, P -0.272 ± 0.089, T 0.055 ± 0.12, D 0.068 ± 0.11, L -0.04 ± 0.073, A -0.116 ± 0.082, R -0.354 ± 0.072, F -0.267 ± 0.091, C -0.215 ± 0.12, V -0.162 ± 0.07, W -0.336 ± 0.098, M 0.04 ± 0.12, Y -0.188 ± 0.11, H -0.496 ± 0.15, G -0.376 ± 0.077, E -0.023 ± 0.087, N 0.002 ± 0.23
K26: P -0.264 ± 0.13, W -0.477 ± 0.094, A -0.081 ± 0.065, M 0.021 ± 0.083, N -0.358 ± 0.11, L -0.075 ± 0.065, E 0.155 ± 0.08, T -0.189 ± 0.11, C -0.318 ± 0.16, G -0.415 ± 0.079, F -0.385 ± 0.13, I 0.244 ± 0.12, Q 0.032 ± 0.11, H -0.239 ± 0.15, S -0.211 ± 0.079, R -0.214 ± 0.084, V -0.13 ± 0.06, D -0.12 ± 0.14
K22: V 0.168 ± 0.086, R 0.041 ± 0.075, G 0.045 ± 0.078, S 0.166 ± 0.099, F -0.16 ± 0.17, P -0.266 ± 0.12, A 0.117 ± 0.072, L 0.039 ± 0.082, M 0.32 ± 0.12, Y -0.246 ± 0.14, I -0.179 ± 0.18, W -0.339 ± 0.094, H 0.169 ± 0.24, Q 0.217 ± 0.11, E 0.249 ± 0.11, N -0.188 ± 0.32, C -0.19 ± 0.13
N32: H -0.009 ± 0.1, G -0.434 ± 0.11, P -0.691 ± 0.19, A -0.349 ± 0.19, M -0.157 ± 0.094, D -0.282 ± 0.15, L -0.684 ± 0.073, F -0.24 ± 0.095, K -0.353 ± 0.11, R -0.431 ± 0.076
